Data published in article doi:10.1101/2021.05.27.445985.
pKd: −log10 of the molar value.

Biological target: Cy5-labeled human neutrophil peptide 1 (HNP1) (human)
Assay: fluorescence polarisation

Recombinant SARS-CoV-2 Spike glycoprotein (from UniProt P0DTC2) (natural protein)
pKd: 6.84
